# From article PMC9108610 (2022)
# T1: CSC (Vps26/Vps29-GFP/Vps35) (Saccharomyces cerevisiae, UniProt P40335)
# T1 chain 1: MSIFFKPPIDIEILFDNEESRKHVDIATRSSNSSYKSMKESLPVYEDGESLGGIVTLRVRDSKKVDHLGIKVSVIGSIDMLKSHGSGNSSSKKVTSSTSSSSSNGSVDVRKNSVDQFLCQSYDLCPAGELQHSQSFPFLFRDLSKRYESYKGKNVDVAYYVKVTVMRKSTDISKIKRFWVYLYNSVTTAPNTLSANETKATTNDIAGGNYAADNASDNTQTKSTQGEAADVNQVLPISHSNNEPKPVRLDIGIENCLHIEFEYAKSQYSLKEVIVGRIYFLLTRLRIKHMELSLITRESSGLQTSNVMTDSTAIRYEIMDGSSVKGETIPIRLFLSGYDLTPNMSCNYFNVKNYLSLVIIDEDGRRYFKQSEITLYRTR
# T1 chain 2: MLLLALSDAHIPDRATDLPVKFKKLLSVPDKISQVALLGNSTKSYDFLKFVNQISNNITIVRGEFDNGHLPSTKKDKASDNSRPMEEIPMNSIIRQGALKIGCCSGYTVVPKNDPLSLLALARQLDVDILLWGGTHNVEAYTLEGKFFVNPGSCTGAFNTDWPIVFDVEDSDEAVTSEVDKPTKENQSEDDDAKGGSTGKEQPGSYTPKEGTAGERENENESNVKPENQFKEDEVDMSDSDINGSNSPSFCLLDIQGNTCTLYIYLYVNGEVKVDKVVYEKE
# T1 chain 3: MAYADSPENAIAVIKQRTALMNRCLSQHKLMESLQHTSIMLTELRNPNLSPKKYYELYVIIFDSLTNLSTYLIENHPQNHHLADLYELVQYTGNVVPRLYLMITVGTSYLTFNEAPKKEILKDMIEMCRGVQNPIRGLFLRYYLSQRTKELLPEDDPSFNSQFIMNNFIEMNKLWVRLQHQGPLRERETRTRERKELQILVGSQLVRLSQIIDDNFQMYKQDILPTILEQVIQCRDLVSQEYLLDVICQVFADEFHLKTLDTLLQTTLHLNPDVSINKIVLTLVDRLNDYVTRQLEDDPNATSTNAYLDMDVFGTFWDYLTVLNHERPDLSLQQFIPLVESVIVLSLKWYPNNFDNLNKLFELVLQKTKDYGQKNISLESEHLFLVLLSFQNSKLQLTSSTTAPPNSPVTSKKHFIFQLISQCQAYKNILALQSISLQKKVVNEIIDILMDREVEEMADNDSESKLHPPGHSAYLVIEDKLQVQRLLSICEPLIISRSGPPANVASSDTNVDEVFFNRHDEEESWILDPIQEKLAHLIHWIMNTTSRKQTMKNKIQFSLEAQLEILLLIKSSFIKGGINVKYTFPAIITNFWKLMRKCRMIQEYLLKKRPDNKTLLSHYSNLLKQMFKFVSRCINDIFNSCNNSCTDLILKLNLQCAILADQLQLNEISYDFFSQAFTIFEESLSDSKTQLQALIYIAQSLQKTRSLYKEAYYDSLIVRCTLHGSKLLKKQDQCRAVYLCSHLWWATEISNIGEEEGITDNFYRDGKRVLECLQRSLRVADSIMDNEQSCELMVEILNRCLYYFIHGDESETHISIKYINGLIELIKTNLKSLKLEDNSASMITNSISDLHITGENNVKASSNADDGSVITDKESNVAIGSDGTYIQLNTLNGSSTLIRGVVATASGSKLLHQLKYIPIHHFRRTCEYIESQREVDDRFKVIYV
# B1: Atg18 (protein)
# chain: MSDSSPTINFINFNQTGTCISLGTSKGFKIFNCEPFGKFYSEDSGGYAIVEMLFSTSLLALVGIGDQPALSPRRLRIINTKKHSIICEVTFPTSILSVKMNKSRLVVLLQEQIYIYDINTMRLLHTIETNPNPRGLMAMSPSVANSYLVYPSPPKVINSEIKAHATTNNITLSVGGNTETSFKRDQQDAGHSDISDLDQYSSFTKRDDADPTSSNGGNSSIIKNGDVIVFNLETLQPTMVIEAHKGEIAAMAISFDGTLMATASDKGTIIRVFDIETGDKIYQFRRGTYATRIYSISFSEDSQYLAVTGSSKTVHIFKLGHSMSNNKLDSDDSNMEEAAADDSSLDTTSIDALSDEENPTRLAREPYVDASRKTMGRMIRYSSQKLSRRAARTLGQIFPIKVTSLLESSRHFASLKLPVETNSHVMTISSIGSPIDIDTSEYPELFETGNSASTESYHEPVMKMVPIRVVSSDGYLYNFVMDPERGGDCLILSQYSILMD
# Molecular target: T1, CSC (Vps26/Vps29-GFP/Vps35)
# Test: fluorescence titration (Vps29-GFP emission increase)
binder,measurement,value
B1,Kd,~50 nM
